Laboratory results from article PMC10208894, “The SmNPR4-SmTGA5 module regulates SA-mediated phenolic acid biosynthesis in Salvia miltiorrhiza hairy roots”.

T1: SmTGA5 (Salvia miltiorrhiza, UniProt UPI0025ACD97B 1-458)
T1 sequence: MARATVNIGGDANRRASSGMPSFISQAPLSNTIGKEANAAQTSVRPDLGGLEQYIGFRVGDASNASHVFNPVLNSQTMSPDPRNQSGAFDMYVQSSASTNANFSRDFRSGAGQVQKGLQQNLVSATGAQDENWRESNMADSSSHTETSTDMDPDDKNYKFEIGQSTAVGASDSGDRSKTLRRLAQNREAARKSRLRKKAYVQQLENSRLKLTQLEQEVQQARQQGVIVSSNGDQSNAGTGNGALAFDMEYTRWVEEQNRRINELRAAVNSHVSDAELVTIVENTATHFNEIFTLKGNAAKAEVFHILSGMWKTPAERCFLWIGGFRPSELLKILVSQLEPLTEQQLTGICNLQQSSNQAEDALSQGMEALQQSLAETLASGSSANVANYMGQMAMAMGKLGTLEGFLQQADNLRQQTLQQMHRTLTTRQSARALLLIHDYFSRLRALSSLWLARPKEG

B1: Probe-pTAT1 (3x as-1) (dsDNA)
DNA 1: TTTAAAGTGACGTGTATCATTTAAAGTGACGTGTATCATTTAAAGTGACGTGTATCA
DNA 2: TGATACACGTCACTTTAAATGATACACGTCACTTTAAATGATACACGTCACTTTAAA
B2: Mut-Probe-pTAT1 (dsDNA)
DNA 1: TTTAAAGTTAAATGTATCATTTAAAGTTAAATGTATCATTTAAAGTTAAATGTATCA
DNA 2: TGATACATTTAACTTTAAATGATACATTTAACTTTAAATGATACATTTAACTTTAAA

Experiments:
SmTGA5 [1] = biological target: T1, SmTGA5; test: EMSA; unlabeled probe at 1:10 and 1:100 reduces the shift; Beyotime GS009 EMSA kit, 20-25 C, 20 min, acrylamide gel; buffer, salt and pH not stated; settings: protein: recombinant; tags: His (pET32a, N-terminal fusion); chain copies: 2; blunt
SmTGA5 [2] = biological target: T1, SmTGA5; test: EMSA; Beyotime GS009 EMSA kit, 20-25 C, 20 min, acrylamide gel; buffer, salt and pH not stated; settings: protein: recombinant; tags: His (pET32a, N-terminal fusion); chain copies: 2; blunt

Row | Binder | binding result (SmTGA5 [1]) | binding result (SmTGA5 [2])
1 | B1 | binds | 
2 | B2 |  | no binding
